# Test results: paper doi:10.1101/2025.01.11.632576 (bioRxiv, 2025)
# Where a chain is given by its changes, count along the chain named. Names may count otherwise.
# B1: HER2 VHH (2Rs15d) Y28K (VHH)
# VHH: QVQLQESGGGSVQAGGSLKLTCAASGKIFNSCGMGWYRQSPGRERELVSRISGDGDTWHKESVKGRFTISQDNVKKTLYLQMNSLKPEDTAVYFCAVCYNLETYWGQGTQVTVSS
# B2: HER2 VHH (2Rs15d) Y28S (VHH)
# VHH: B1 VHH with K27S
# B3: HER2 VHH (2Rs15d) T58A (VHH)
# VHH: B1 VHH with K27Y, T57A
# B4: HER2 VHH (2Rs15d) T58D (VHH)
# VHH: B1 VHH with K27Y, T57D
# B5: HER2 VHH (2Rs15d) T58K (VHH)
# VHH: B1 VHH with K27Y, T57K
# B6: HER2 VHH (2Rs15d) T58S (VHH)
# VHH: B1 VHH with K27Y, T57S
# B7: HER2 VHH (2Rs15d) N101D (VHH)
# VHH: B1 VHH with K27Y, N100D
# B8: HER2 VHH (2Rs15d) G54S (VHH)
# VHH: B1 VHH with K27Y, G53S
# B9: HER2 VHH (2Rs15d) G54A (VHH)
# VHH: B1 VHH with K27Y, G53A
# B10: HER2 VHH (2Rs15d) G54D (VHH)
# VHH: B1 VHH with K27Y, G53D
# B11: HER2 VHH (2Rs15d) G54K (VHH)
# VHH: B1 VHH with K27Y, G53K
# B12: HER2 VHH (2Rs15d) D55K (VHH)
# VHH: B1 VHH with K27Y, D54K
# B13: HER2 VHH (2Rs15d) S32K (VHH)
# VHH: B1 VHH with K27Y, S31K
# B14: HER2 VHH (2Rs15d) Y28A (VHH)
# VHH: B1 VHH with K27A
# B15: HER2 VHH (2Rs15d) Y28D (VHH)
# VHH: B1 VHH with K27D
# Columns and labels:
# Assay in all cases: SPR
# [1] = molecular target: HER2 VHH (2Rs15d) L102A
# [2] = molecular target: HER2 VHH (2Rs15d) L102S
# [3] = molecular target: HER2 VHH (2Rs15d) I29D
# [4] = molecular target: recombinant human HER2 (AA 23-653) (Homo sapiens, UniProt P04626)
molecule,measurement,setting,value
recombinant human HER2 (AA 23-653) (from UniProt P04626 23-653) (domain or fragment),Kd,[1],3.1 nM
same,Kd,[2],3.6 nM
same,Kd,[3],3.1 nM
B1,binding result,[4],binds
B2,binding result,[4],binds
B3,binding result,[4],binds
B4,binding result,[4],binds
B5,binding result,[4],binds
B6,binding result,[4],binds
B7,binding result,[4],binds
B8,binding result,[4],binds
B9,binding result,[4],binds
B10,binding result,[4],binds
B11,binding result,[4],binds
B12,binding result,[4],binds
B13,Kd,[4],31 nM
B14,binding result,[4],binds
B15,binding result,[4],binds
